Laboratory results from article PMC10827179.

Key:
[1] = molecular target: S. mutans CLC^F F-/H+ antiporter encoded by ORF 1289 (SMU.1289) (Streptococcus mutans UA159); assay: cross-linking
[2] = molecular target: S. mutans CLC^F homologue encoded by ORF 1290 (SMU.1290) (Streptococcus mutans UA159); assay: cross-linking

| Substance | stoichiometry N [1] | stoichiometry N [2] |
| --- | --- | --- |
| S. mutans CLC^F F-/H+ antiporter encoded by ORF 1289 (SMU.1289) (natural protein) | 2 |  |
| S. mutans CLC^F homologue encoded by ORF 1290 (SMU.1290) (natural protein) |  | 2 |
